This note sets out measurements from PMC8452682, “Unwinding of a DNA replication fork by a hexameric viral helicase” (Nature Communications, 2021).

By stoichiometry N is commonly meant a count of units in the complex or per binding partner.

The series concerns the molecule itself. The series can be described thus: cryo-EM structure; E1RF complex: 60 uM E1 assembled with 10 uM fork DNA, no nucleotide, purified by gel filtration (10 mM Tris-Cl pH 8.0, 225 mM NaCl, 2 mM DTT, 0.1 mM PMSF, 1 mM EDTA); hexamer on DNA; Titan Krios 300 kV, K3.

B1: Bovine papillomavirus (BPV) E1 helicase, full-length, wild type (enzyme)
chain: MANDKGSNWDSGLGCSYLLTEAECESDKENEEPGAGVELSVESDRYDSQDEDFVDNASVFQGNHLEVFQALEKKAGEEQILNLKRKVLGSSQNSSGSEASETPVKRRKSGAKRRLFAENEANRVLTPLQVQGEGEGRQELNEEQAISHLHLQLVKSKNATVFKLGLFKSLFLCSFHDITRLFKNDKTTNQQWVLAVFGLAEVFFEASFELLKKQCSFLQMQKRSHEGGTCAVYLICFNTAKSRETVRNLMANTLNVREECLMLQPAKIRGLSAALFWFKSSLSPATLKHGALPEWIRAQTTLNESLQTEKFDFGTMVQWAYDHKYAEESKIAYEYALAAGSDSNARAFLATNSQAKHVKDCATMVRHYLRAETQALSMPAYIKARCKLATGEGSWKSILTFFNYQNIELITFINALKLWLKGIPKKNCLAFIGPPNTGKSMLCNSLIHFLGGSVLSFANHKSHFWLASLADTRAALVDDATHACWRYFDTYLRNALDGYPVSIDRKHKAAVQIKAPPLLVTSNIDVQAEDRYLYLHSRVQTFRFEQPCTDESGEQPFNITDADWKSFFVRLWGRLDLIDEEEDSEEDGDSMRTFTCSARNTNAVD
notes: Replication protein E1 of bovine papillomavirus (BPV), full length; C-terminal acidic tail is residues 579-605; Hexamer assembled on a synthetic DNA replication fork (30 bp dsDNA, 3' T20, 13-base 5' tail) without nucleotide; also called E1 protein; subunits A-F of the E1RF complex; source: expressed as a GST fusion protein, purified (glutathione sepharose, thrombin cleavage, cation and anion …)
For B1, the “stoichiometry N” value stood at 6.
